Tests used:
Human MCP-1 = target: T1, Human MCP-1 (Homo sapiens, UniProt P13500); assay: ELISA analysis of the synthetic chemokine-binding peptide; details: chemokine-coated wells, specific binding = at least two fold of binding to control proteins (BSA, Actin, Fibronectin)
T1 construct: purchased PeproTech, Inc. 300-04
Experimental: (§1) Recombinant chemokines were ordered from PeproTech, Inc. (Rocky Hill, N.J., USA). Human SDF-1α (Cat. No. 300-28A), human MIG (Cat. No. 300-26) and human IL-8, (72 amino acids) (Cat. No. 200-08M), belong to the alpha-chemokines (C-X-C) family. Human MCP-1 (MCAF) (Cat. No. 300-04) and human Eotaxin (Cat No. 300-21) belong to the beta-chemokines (C-C family). All chemokines were prepared according to the company recommendations.
(§2) Peptides were synthesized in the Weizmann Institute of Science, Rehovot, Israel, in order to perform tests for characterization of their influence on the biological activity of the chemokines. The format of the various synthesized peptides was as follows: The cyclic peptides, ACX7CGGGSK-biotin-G and the linear peptides, X12GGGSK-biotin-G. The peptides were biotinylated on their C-termini; the biotin will serve as a detector during the following experiments. Each synthetic peptide was dissolved to concentration of 1 mg/ml (˜0.6 mM) in 4% DMSO (Dimethyl Sulphoxide, Sigma, Cat. # D-2650).
(§3) NUNC-Immuno™ MaxiSorp™ plates (Cat. No. 4-42404) were coated with the appropriate chemokine (0.1 ml/well, 0.1-1.0 μg/ml in 0.1 M NaHCO3, pH 8.6), overnight at 4° C. The plates were then blocked with 0.2 ml/well of blocking buffer (5 mg/ml BSA in 0.1 NaHCO3). Control wells were treated with blocking buffer alone, with no addition of target protein (chemokine). The plates were washed 6 times with PBST (0.1% Tween 20 in PBS), followed by incubation for 45 minutes at room temperature with 10-fold serial dilutions of individual synthetic peptides (10pg-10 μg) with 1% BSA (PBST-BSA)/well. After the plates were washed 6 times with PBST, the bound peptides were probed by HRP-SA Conjugate, diluted 1:10,000 to 1:20,000 in PBST-BSA, 0.1 ml/well for 45 minutes at room temperature. The target-bound synthetic peptides probed with HRP-SA were quantified by DAKO TMB one-step substrate system, followed by the addition of stop solution, HCl—H2SO4 mixture (0.1 ml/well) (1N HCl, 3N H2SO4). The results were analyzed by ELISA reader at OD450.
(§4) The present invention identifies chemokine-binding peptides with biological activity. The binding specificities of the various peptides to the chemokines were determined by screening against BSA, Actin and Fibronectin-coated wells as negative controls in parallel experiments. The binding level of the peptides to the various chemokines, which reached at least two fold of the binding level to the control proteins, was considered a specific binding.
(§5) The specific binding of the peptides was detected by screening methodology, using ELISA, as described in “Materials and Methods”, employing microplates coated with the various chemokines to be checked. The binding specificities of the various peptides to the various chemokines were determined by screening against BSA, Actin and Fibronectin-coated wells as negative controls in parallel experiments.
(§6) Again, the specificity of the binding, either to one chemokine or more, was established by comparing binding level with the control binding level to non-related proteins, (shown in the Figure as a broken line).

Eotaxin [1] = target: T2, Eotaxin (Homo sapiens, UniProt P51671); assay: as above; details: chemokine-coated wells, specific binding = at least two fold of binding to control proteins (BSA, Actin, Fibronectin)
T2 construct: purchased PeproTech, Inc. 300-21
Experimental: as §1, §2, §3, §4, §5, §6

human IL-8 = target: T3, human IL-8 (Homo sapiens, UniProt P10145); assay: as above; details: chemokine-coated wells, specific binding = at least two fold of binding to control proteins (BSA, Actin, Fibronectin)
T3 construct: human IL-8, (72 amino acids) (Cat. No. 200-08M); purchased PeproTech, Inc. 200-08M
T3 sequence (P10145 28-99 limits assumed): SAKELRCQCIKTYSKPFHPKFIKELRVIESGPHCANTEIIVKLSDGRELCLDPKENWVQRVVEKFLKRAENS
Experimental: as §1, §2, §3, §4, §5, §6

SDF-1α = target: T4, SDF-1α (Homo sapiens, UniProt P48061); assay: as above; details: chemokine-coated wells, specific binding = at least two fold of binding to control proteins (BSA, Actin, Fibronectin)
T4 construct: purchased PeproTech, Inc. 300-28A
Experimental: as §1, §2, §3, §4, §5, §6

IL-8 = target: T5, IL-8 (Homo sapiens, UniProt P10145); assay: Biovalidation: laminar flow assay, chemokine and VCAM-1 activated adhesion of T cells; type: cell-based; parameters: key to Level of Antagonistic Effect / Level of Effect: + 20%; ++ 50%; +++ 100%; − No effect; details: VCAM-1; for Level of Antagonistic Effect: Chemokine checked IL-8, T cells, peptide 10 μg/ml; for Abolishment of the activity of IL-8: T cell adhesion under flow
T5 construct: human IL-8, (72 amino acids) (Cat. No. 200-08M); purchased PeproTech, Inc. 200-08M
T5 sequence (P10145 28-99): T3 sequence (P10145 28-99 limits assumed)

Eotaxin [2] = target: T2, Eotaxin; assay: as above; type: cell-based; details: VCAM-1
MIG [3] = target: T6, MIG (Homo sapiens, UniProt Q07325); assay: ELISA analysis of the synthetic chemokine-binding peptide; details: chemokine-coated wells, specific binding = at least two fold of binding to control proteins (BSA, Actin, Fibronectin)
T6 construct: purchased PeproTech, Inc. 300-26
T6 sequence (Q07325 23-125): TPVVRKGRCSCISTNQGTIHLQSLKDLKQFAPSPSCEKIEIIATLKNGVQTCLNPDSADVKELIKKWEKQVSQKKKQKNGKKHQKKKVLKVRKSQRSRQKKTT
Experimental: as §1, §2, §3, §4, §5, §6

[4] = system: chemokines MCP-1, SDF-1α, MIG, Eotaxin and IL-8; assay: ELISA binding to the panel of chemokines (chemokine not singled out); parameters: species or system human; details: five chemokines tested, control binding level = one fold
Experimental: as §1, §2, §3
The present invention identifies chemokine-binding peptides with biological activity. The binding specificities of the various peptides to the chemokines were determined by screening against BSA, Actin and Fibronectin-coated wells as negative controls in parallel experiments. […]
The specific binding of the peptides was detected by screening methodology, using ELISA, as described in “Materials and Methods”, employing microplates coated with the various chemokines to be checked. The binding specificities of the various peptides to the various chemokines were determined by screening against BSA, Actin and Fibronectin-coated wells as negative controls in parallel experiments. […]

MIG [5] = target: T6, MIG; assay: Biovalidation: laminar flow assay, chemokine and VCAM-1 activated adhesion of T cells; type: cell-based; details: for Level of Antagonistic Effect: Chemokine checked MIG, T cells, peptide 10 μg/ml; for Level of Antagonistic Effect / Reduction of the activity of MIG: VCAM-1; for Reduction of the activity of MIG: T cell adhesion under flow
Experimental: 50 ml blood was added to 10 ml Dextran (Dextran T-500 6% w/v) in PBS (phosphate buffer saline), and 7 ml citrate buffer (25 g citrate, 8 g citric acid in 500 ml PBS). The solution was incubated for 30 min at 25° C. 10 ml Ficoll 1077 (Sigma) was added to the bottom of the tube. The tube was then centrifuged at 2,000 rpm for 30 min, at 18° C., (with the brake mode of the centrifuge off). The interphase was collected and washed twice with 8 ml PBS-5% FCS (fetal calf serum), followed by centrifugation at 1,400 rpm, for 5 min, at 18° C. The cells were re-suspended in PBS-5% FCS at a concentration less than 10^8/ml. 2 ml of the cell solution were applied and incubated for 45 min at 25° C. on a Perspex Nylon wool column, which was pre-soaked with PBS-5% FCS. Each column was washed with 8 ml PBS-5% FCS and the cells (T-cells and erythrocytes) were eluted by 50 ml of 5 mM EDTA in PBS. A red pellet was obtained by centrifugation at 1,400 rpm, at 4° C., for 5 min, with the brake on. In order to perform lysis of the erythrocytes, the red pellet was re-suspended in 5 ml lysis-buffer (155 mM NH4Cl, 10 mM KHCO3, 0.1 mM EDTA, X0.1PBS) for 4 min, followed by immediate addition of 50 ml of PBS-EDTA.
Following centrifugation at 1,400 rpm, at 4° C., for 5 min with brake on, the pellet was washed again with 50 ml PBS-EDTA and re-centrifuged under the same conditions. A white pellet was obtained and re-suspended in RPMI/10% FCS/L-glutamine/sodium pyruvate/antibiotics at a concentration of 3^X10^6 cells/ml. The cells were incubated for 2 h at 37° C., followed by collection of the non-adherent cells. The cells were ready for use in experiments after overnight incubation at 37° C. […]
Laminar flow assays were performed as follows. Polystyrene plates (B.D) were coated with soluble VCAM-1 at 10 μg/ml in the presence of 2 μg/ml HSA carrier. The plates were washed three times with PBS and blocked with HSA (20 μg/ml in PBS) for 2 hrs at room temperature. Alternatively, washed plates were coated with 10 μg/ml MIG chemokine in PBS for 30 min at room temperature, before being blocked with HSA. The plates were assembled as the lower wall of a parallel wall flow chamber and mounted on the stage of an inverted microscope. The peptide, as described previously, (10 μg/ml) was allowed to settle on the substrate coated chamber wall for 10 min, at 37° C. and then washed. T cells (5×10^6/ml, purity >98%) were suspended in binding buffer, perfused into the chamber and allowed to settle on the substrate coated chamber wall for 1 min, at 37° C. Flow was initiated and increased in 2 to 2.5 fold increments every 5 sec. generating controlled shear stresses on the wall. Cells were visualized in a 20× objective of an inverted phase-contrast Diaphot Microscope (Nikon, Japan) and photographed with a long integration LIS-700 CCD video camera (Applitech; Holon, Israel), connected to a video recorder (AG-6730 S-VHS, Panasonic, Japan). The number of adherent cells resisting detachment by the elevated shear forces was determined after each interval by analysis of videotaped cell images, and was expressed as the percent of originally settled cells. All adhesion experiments were performed at least three times on multiple test fields.

T2 sequence (P51671 24-97): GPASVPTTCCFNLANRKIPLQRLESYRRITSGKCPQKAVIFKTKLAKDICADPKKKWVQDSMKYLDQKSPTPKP
T1 sequence (P13500 24-99): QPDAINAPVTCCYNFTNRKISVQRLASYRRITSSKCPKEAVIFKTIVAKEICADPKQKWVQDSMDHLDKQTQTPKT
T4 sequence (P48061 22-89 limits assumed): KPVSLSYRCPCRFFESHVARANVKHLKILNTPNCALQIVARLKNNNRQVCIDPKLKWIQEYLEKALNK

Row | Sequence | Bound chemokines (at least): MCP-1 (Human MCP-1) | Bound chemokines (at least): Eotaxin (Eotaxin [1]) | Bound chemokines (at least): IL-8 (human IL-8) | other results
1 | HSACHASLKHRC [BKT-P49] | MCP-1 |  |  | 
2 | LDYPIPQTVLHH [BKT-P46] | MCP-1 |  |  | 
3 | LGFDPTSTRFYT [BKT-P22] |  | bind and found to bind Eotaxin |  | 
4 | LLADTTHHRPWP [BKT-P37] |  |  | IL-8 | 
5 | SAGHIHEAHRPL [BKT-P39] |  | Eotaxin, | IL-8 | Bound chemokines (at least): SDF-1α (SDF-1α): SDF-1α; Level of Antagonistic Effect (IL-8): −; Abolishment of the activity of IL-8 (IL-8): no effect; Level of Antagonistic Effect (Eotaxin [2]; Chemokine checked Eotaxin, T cells, peptide 10 μg/ml): +++ (+++ 100%); Blocking of the activity of Eotaxin (Eotaxin [2]; T cell adhesion under flow): 100%
6 | SAISDHRAHRSH [BKT-P40] |  |  | IL-8 | 
7 | SFWHHHSPRSPL [BKT-P31] |  | Eotaxin |  | 
8 | SIFAHQTPTHKN [BKT-P3] | MCP-1 |  | IL-8 | Bound chemokines (at least): MIG (MIG [3]): highest binding level and MIG; Binding to the various chemokines [4]: binds to all five chemokines tested; Level of Antagonistic Effect (MIG [5]): +++ (+++ 100%); Percentage of arrested cells (MIG [5]; MIG plus peptide (FIG. 4), MIG alone about 25-30%, control = VCAM-1 alone): dramatically reduced; Reduction of the activity of MIG (MIG [5]): complete arrest; Level of Antagonistic Effect (IL-8): +++ (+++ 100%); Abolishment of the activity of IL-8 (IL-8): complete arrest
9 | SIPSHSIHSAKA [BKT-P2] | MCP-1, | Eotaxin | IL-8 | Level of Antagonistic Effect (MIG [5]): ++ (++ 50%); Reduction of the activity of MIG (MIG [5]): about 50%
10 | SVQTRPLFHSHF [BKT-P34] |  | Eotaxin |  | 
11 | TRLVPSRYYHHP [BKT-P47] | MCP-1 |  |  | 
12 | VHTSLLQKHPLP [BKT-P26] | MCP-1 |  |  | 
13 | WSAHIVPYSHKP [BKT-P52] | MCP-1 |  |  | 
14 | YATQHNWRLKHE [BKT-P53] | MCP-1 |  |  | 

Reference: patent US8796227B2, “Peptides for inhibiting chemokine binding to chemokine receptors” (Biokine Therapeutics Ltd., priority 2002, dated 2014)
